The source of these data is patent US12173301B2, “Weed control methods and related compositions and plants” (Syngenta Crop Protection AG, priority 2019, dated 2024).

The nature of this series: FatA enzymatic kinetic parameters with oleoyl-CoA as substrate. In kind it is biochemical. Conditions: Michaelis-Menten; for Km: read-out: Km (μM) - best fit. The method, then:
For the determination of FatA enzymatic kinetic parameters with oleoyl-CoA as substrate, assays are carried out essentially as described above for the testing of inhibitor compounds but with some changes to the method as follows. Oleoyl CoA is omitted from the assay master mix and added as a separate component to achieve final concentration of 40 μM, 23.5 μM. 13.8 μM, 8.1 μM, 4.8 μM, 2.8 μM and 1.7 μM (i.e. 1.7× dilution scheme). The level of enzymatic activity is determined from the slope of the progress curve (initial linear rates) using assay values measured at 0, 20, 40, 60, 90 and 120 s after addition of the enzyme. Kinetic parameters are then calculated using the Michaelis-Menten model as implemented in GraphPad Prism software.
FatA variant enzymes were prepared from 1 L E coli grows and assays carried out to determine enzyme kinetics as described in Example 1.

B1: Y217L: Arabidopsis FatA acyl-ACP thioesterase variant, substitution Y217L relative to SEQ ID NO: 1 (protein, listed as Arabidopsis thaliana)
chain: MLKLSCNVTDSKLQRSLLFFSHSYRSDPVNFIRRRIVSCSQTKKTGLVPLRAVVSADQGSVVQGLATLADQLRLGSLTEDGLSYKEKFVVRSYEVGSNKTATVETIANLLQEVGCNHAQSVGFSTDGFATTTTMRKLHLIWVTARMHIEIYKYPAWGDVVEIETWCQSEGRIGTRRDWILKDSVTGEVTGRATSKWVMMNQDTRRLQKVSDDVRDELLVFCPQEPRLAFPEENNRSLKKIPKLEDPAQYSMIGLKPRRADLDMNQHVNNVTYIGWVLESIPQEIVDTHELQVITLDYRRECQQDDVVDSLTTTTSEIGGTNGSATSGTQGHNDSQFLHLLRLSGDGQEINRGTTLWRKKPSS
For B1, the “kcat (s^−1) - best fit” value was 1.7 s⁻¹ and the Km (commonly the concentration of substrate that gives half-maximal velocity) worked out at 4.7 µM.

B2: F220H: Arabidopsis FatA acyl-ACP thioesterase variant, substitution F220H relative to SEQ ID NO: 1 (protein, listed as Arabidopsis thaliana)
chain: MLKLSCNVTDSKLQRSLLFFSHSYRSDPVNFIRRRIVSCSQTKKTGLVPLRAVVSADQGSVVQGLATLADQLRLGSLTEDGLSYKEKFVVRSYEVGSNKTATVETIANLLQEVGCNHAQSVGFSTDGFATTTTMRKLHLIWVTARMHIEIYKYPAWGDVVEIETWCQSEGRIGTRRDWILKDSVTGEVTGRATSKWVMMNQDTRRLQKVSDDVRDEYLVHCPQEPRLAFPEENNRSLKKIPKLEDPAQYSMIGLKPRRADLDMNQHVNNVTYIGWVLESIPQEIVDTHELQVITLDYRRECQQDDVVDSLTTTTSEIGGTNGSATSGTQGHNDSQFLHLLRLSGDGQEINRGTTLWRKKPSS
Consider B2, for which the “kcat (s^−1) - best fit” value is 2.0 s⁻¹ and the Km was 3.2 µM.

B3: V121N: Arabidopsis FatA acyl-ACP thioesterase variant, substitution V121N relative to SEQ ID NO: 1 (protein, listed as Arabidopsis thaliana)
chain: MLKLSCNVTDSKLQRSLLFFSHSYRSDPVNFIRRRIVSCSQTKKTGLVPLRAVVSADQGSVVQGLATLADQLRLGSLTEDGLSYKEKFVVRSYEVGSNKTATVETIANLLQEVGCNHAQSNGFSTDGFATTTTMRKLHLIWVTARMHIEIYKYPAWGDVVEIETWCQSEGRIGTRRDWILKDSVTGEVTGRATSKWVMMNQDTRRLQKVSDDVRDEYLVFCPQEPRLAFPEENNRSLKKIPKLEDPAQYSMIGLKPRRADLDMNQHVNNVTYIGWVLESIPQEIVDTHELQVITLDYRRECQQDDVVDSLTTTTSEIGGTNGSATSGTQGHNDSQFLHLLRLSGDGQEINRGTTLWRKKPSS
Regarding B3, the “kcat (s^−1) - best fit” value stood at 0.8 s⁻¹ and the Km came to 7.1 µM.

B4: G114S: Arabidopsis FatA acyl-ACP thioesterase variant, substitution G114S relative to SEQ ID NO: 1 (protein, listed as Arabidopsis thaliana)
chain: MLKLSCNVTDSKLQRSLLFFSHSYRSDPVNFIRRRIVSCSQTKKTGLVPLRAVVSADQGSVVQGLATLADQLRLGSLTEDGLSYKEKFVVRSYEVGSNKTATVETIANLLQEVSCNHAQSVGFSTDGFATTTTMRKLHLIWVTARMHIEIYKYPAWGDVVEIETWCQSEGRIGTRRDWILKDSVTGEVTGRATSKWVMMNQDTRRLQKVSDDVRDEYLVFCPQEPRLAFPEENNRSLKKIPKLEDPAQYSMIGLKPRRADLDMNQHVNNVTYIGWVLESIPQEIVDTHELQVITLDYRRECQQDDVVDSLTTTTSEIGGTNGSATSGTQGHNDSQFLHLLRLSGDGQEINRGTTLWRKKPSS
Turning to B4, the “kcat (s^−1) - best fit” value was 2.3 s⁻¹ and the Km worked out at 2.8 µM.

B5: C221F: Arabidopsis FatA acyl-ACP thioesterase variant, substitution C221F relative to SEQ ID NO: 1 (protein, listed as Arabidopsis thaliana)
chain: MLKLSCNVTDSKLQRSLLFFSHSYRSDPVNFIRRRIVSCSQTKKTGLVPLRAVVSADQGSVVQGLATLADQLRLGSLTEDGLSYKEKFVVRSYEVGSNKTATVETIANLLQEVGCNHAQSVGFSTDGFATTTTMRKLHLIWVTARMHIEIYKYPAWGDVVEIETWCQSEGRIGTRRDWILKDSVTGEVTGRATSKWVMMNQDTRRLQKVSDDVRDEYLVFFPQEPRLAFPEENNRSLKKIPKLEDPAQYSMIGLKPRRADLDMNQHVNNVTYIGWVLESIPQEIVDTHELQVITLDYRRECQQDDVVDSLTTTTSEIGGTNGSATSGTQGHNDSQFLHLLRLSGDGQEINRGTTLWRKKPSS
On to B5, for which the “kcat (s^−1) - best fit” value came out at 1.5 s⁻¹ and the Km amounted to 4.3 µM.

B6: F123C: Arabidopsis FatA acyl-ACP thioesterase variant, substitution F123C relative to SEQ ID NO: 1 (protein, listed as Arabidopsis thaliana)
chain: MLKLSCNVTDSKLQRSLLFFSHSYRSDPVNFIRRRIVSCSQTKKTGLVPLRAVVSADQGSVVQGLATLADQLRLGSLTEDGLSYKEKFVVRSYEVGSNKTATVETIANLLQEVGCNHAQSVGCSTDGFATTTTMRKLHLIWVTARMHIEIYKYPAWGDVVEIETWCQSEGRIGTRRDWILKDSVTGEVTGRATSKWVMMNQDTRRLQKVSDDVRDEYLVFCPQEPRLAFPEENNRSLKKIPKLEDPAQYSMIGLKPRRADLDMNQHVNNVTYIGWVLESIPQEIVDTHELQVITLDYRRECQQDDVVDSLTTTTSEIGGTNGSATSGTQGHNDSQFLHLLRLSGDGQEINRGTTLWRKKPSS
Regarding B6, the “kcat (s^−1) - best fit” value worked out at 0.3 s⁻¹ and the Km was determined as 4.8 µM.

B7: S168R: Arabidopsis FatA acyl-ACP thioesterase variant, substitution S168R relative to SEQ ID NO: 1 (protein, listed as Arabidopsis thaliana)
chain: MLKLSCNVTDSKLQRSLLFFSHSYRSDPVNFIRRRIVSCSQTKKTGLVPLRAVVSADQGSVVQGLATLADQLRLGSLTEDGLSYKEKFVVRSYEVGSNKTATVETIANLLQEVGCNHAQSVGFSTDGFATTTTMRKLHLIWVTARMHIEIYKYPAWGDVVEIETWCQREGRIGTRRDWILKDSVTGEVTGRATSKWVMMNQDTRRLQKVSDDVRDEYLVFCPQEPRLAFPEENNRSLKKIPKLEDPAQYSMIGLKPRRADLDMNQHVNNVTYIGWVLESIPQEIVDTHELQVITLDYRRECQQDDVVDSLTTTTSEIGGTNGSATSGTQGHNDSQFLHLLRLSGDGQEINRGTTLWRKKPSS
Consider B7, for which the “kcat (s^−1) - best fit” value came to 1.3 s⁻¹ and the Michaelis constant (Km) was found to be 3 µM.

B8: N269Y: Arabidopsis FatA acyl-ACP thioesterase variant, substitution N269Y relative to SEQ ID NO: 1 (protein, listed as Arabidopsis thaliana)
chain: MLKLSCNVTDSKLQRSLLFFSHSYRSDPVNFIRRRIVSCSQTKKTGLVPLRAVVSADQGSVVQGLATLADQLRLGSLTEDGLSYKEKFVVRSYEVGSNKTATVETIANLLQEVGCNHAQSVGFSTDGFATTTTMRKLHLIWVTARMHIEIYKYPAWGDVVEIETWCQSEGRIGTRRDWILKDSVTGEVTGRATSKWVMMNQDTRRLQKVSDDVRDEYLVFCPQEPRLAFPEENNRSLKKIPKLEDPAQYSMIGLKPRRADLDMNQHVNYVTYIGWVLESIPQEIVDTHELQVITLDYRRECQQDDVVDSLTTTTSEIGGTNGSATSGTQGHNDSQFLHLLRLSGDGQEINRGTTLWRKKPSS
In the case of B8, the “kcat (s^−1) - best fit” value was determined as 6.1 s⁻¹ and the Michaelis constant (Km) stood at 4 µM.

B9: F123N: Arabidopsis FatA acyl-ACP thioesterase variant, substitution F123N relative to SEQ ID NO: 1 (protein, listed as Arabidopsis thaliana)
chain: MLKLSCNVTDSKLQRSLLFFSHSYRSDPVNFIRRRIVSCSQTKKTGLVPLRAVVSADQGSVVQGLATLADQLRLGSLTEDGLSYKEKFVVRSYEVGSNKTATVETIANLLQEVGCNHAQSVGNSTDGFATTTTMRKLHLIWVTARMHIEIYKYPAWGDVVEIETWCQSEGRIGTRRDWILKDSVTGEVTGRATSKWVMMNQDTRRLQKVSDDVRDEYLVFCPQEPRLAFPEENNRSLKKIPKLEDPAQYSMIGLKPRRADLDMNQHVNNVTYIGWVLESIPQEIVDTHELQVITLDYRRECQQDDVVDSLTTTTSEIGGTNGSATSGTQGHNDSQFLHLLRLSGDGQEINRGTTLWRKKPSS
Turning to B9, the “kcat (s^−1) - best fit” value was found to be 0.3 s⁻¹ and the Michaelis-Menten constant (Km) stood at 14.6 µM.

B10: S168C: Arabidopsis FatA acyl-ACP thioesterase variant, substitution S168C relative to SEQ ID NO: 1 (protein, listed as Arabidopsis thaliana)
chain: MLKLSCNVTDSKLQRSLLFFSHSYRSDPVNFIRRRIVSCSQTKKTGLVPLRAVVSADQGSVVQGLATLADQLRLGSLTEDGLSYKEKFVVRSYEVGSNKTATVETIANLLQEVGCNHAQSVGFSTDGFATTTTMRKLHLIWVTARMHIEIYKYPAWGDVVEIETWCQCEGRIGTRRDWILKDSVTGEVTGRATSKWVMMNQDTRRLQKVSDDVRDEYLVFCPQEPRLAFPEENNRSLKKIPKLEDPAQYSMIGLKPRRADLDMNQHVNNVTYIGWVLESIPQEIVDTHELQVITLDYRRECQQDDVVDSLTTTTSEIGGTNGSATSGTQGHNDSQFLHLLRLSGDGQEINRGTTLWRKKPSS
Regarding B10, the “kcat (s^−1) - best fit” value came to 1.2 s⁻¹ and the Michaelis constant (Km) amounted to 6.2 µM.

B11: L218C: Arabidopsis FatA acyl-ACP thioesterase variant, substitution L218C relative to SEQ ID NO: 1 (protein, listed as Arabidopsis thaliana)
chain: MLKLSCNVTDSKLQRSLLFFSHSYRSDPVNFIRRRIVSCSQTKKTGLVPLRAVVSADQGSVVQGLATLADQLRLGSLTEDGLSYKEKFVVRSYEVGSNKTATVETIANLLQEVGCNHAQSVGFSTDGFATTTTMRKLHLIWVTARMHIEIYKYPAWGDVVEIETWCQSEGRIGTRRDWILKDSVTGEVTGRATSKWVMMNQDTRRLQKVSDDVRDEYCVFCPQEPRLAFPEENNRSLKKIPKLEDPAQYSMIGLKPRRADLDMNQHVNNVTYIGWVLESIPQEIVDTHELQVITLDYRRECQQDDVVDSLTTTTSEIGGTNGSATSGTQGHNDSQFLHLLRLSGDGQEINRGTTLWRKKPSS
As to B11, the “kcat (s^−1) - best fit” value came to 1.1 s⁻¹ and the Km was determined as 0.8 µM.
